Measurements taken from article PMC9396414, “An antagonistic monoclonal anti–Plexin-B1 antibody exerts therapeutic effects in mouse models of postmenopausal osteoporosis and multiple sclerosis” (The Journal of Biological Chemistry, 2022).

Biological target: T1, human Sema4D (semaphorin 4D) (human, UniProt Q92854 22-734)
T1 construct: Semaphorin 4D (Sema4D, CD100), human, recombinant protein bought from R&D Systems, cat. no; 7470-S4; check against the vendor's data sheet; also called CD100; source: bought: R&D (7470-S4)
T1 sequence (looked up): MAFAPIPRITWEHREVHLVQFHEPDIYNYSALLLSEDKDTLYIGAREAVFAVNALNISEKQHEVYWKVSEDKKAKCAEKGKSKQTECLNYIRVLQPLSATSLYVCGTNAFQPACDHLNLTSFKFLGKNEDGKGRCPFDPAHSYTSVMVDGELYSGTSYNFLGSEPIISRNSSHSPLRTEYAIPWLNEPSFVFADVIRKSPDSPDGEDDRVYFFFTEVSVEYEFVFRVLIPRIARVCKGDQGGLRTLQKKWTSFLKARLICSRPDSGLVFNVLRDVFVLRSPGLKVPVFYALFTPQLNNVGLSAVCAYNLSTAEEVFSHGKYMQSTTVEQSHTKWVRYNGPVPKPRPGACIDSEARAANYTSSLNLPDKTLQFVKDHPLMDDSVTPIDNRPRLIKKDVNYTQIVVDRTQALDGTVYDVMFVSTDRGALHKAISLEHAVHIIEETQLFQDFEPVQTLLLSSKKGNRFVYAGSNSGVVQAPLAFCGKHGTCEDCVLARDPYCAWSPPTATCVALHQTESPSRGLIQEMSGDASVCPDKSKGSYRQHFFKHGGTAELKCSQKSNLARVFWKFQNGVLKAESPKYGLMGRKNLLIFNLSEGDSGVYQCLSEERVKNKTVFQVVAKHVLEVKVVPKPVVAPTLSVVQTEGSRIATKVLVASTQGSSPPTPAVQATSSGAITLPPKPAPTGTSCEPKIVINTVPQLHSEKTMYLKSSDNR
Experiment: BLI; OctetRED384; 5 μg/ml biotinylated human Plexin-B1 (20–535)-Avi-6xHis captured on an SA biosensor in 1xKinetics buffer; then 50 nM antibody or buffer, then 50 nM human Sema4D; qualitative analysis of association curves
Conditions: both partners purified

binding result: binds
B1: biotinylated human Plexin-B1 (20–535)-Avi-6xHis (domain or fragment, UniProt O43157 20-535, looked up)
chain: LQPLPPTAFTPNGTYLQHLARDPTSGTLYLGATNFLFQLSPGLQLEATVSTGPVLDSRDCLPPVMPDECPQAQPTNNPNQLLLVSPGALVVCGSVHQGVCEQRRLGQLEQLLLRPERPGDTQYVAANDPAVSTVGLVAQGLAGEPLLFVGRGYTSRGVGGGIPPITTRALWPPDPQAAFSYEETAKLAVGRLSEYSHHFVSAFARGASAYFLFLRRDLQAQSRAFRAYVSRVCLRDQHYYSYVELPLACEGGRYGLIQAAAVATSREVAHGEVLFAAFSSAAPPTVGRPPSAAAGASGASALCAFPLDEVDRLANRTRDACYTREGRAEDGTEVAYIEYDVNSDCAQLPVDTLDAYPCGSDHTPSPMASRVPLEATPILEWPGIQLTAVAVTMEDGHTIAFLGDSQGQLHRVYLGPGSDGHPYSTQSIQQGSAVSRDLTFDGTFEHLYVMTQSTLLKVPVASCAQHLDCASCLAHRDPYCGWCVLLGRCSRRSECSRGQGPEQWLWSFQPELGCLQ
modifications: biotin on the Avi-tag (in vitro, BirA enzyme)
notes: Plexin-B1, human, extracellular region residues 20-535; cloned as fragment 1-535 and secreted as 20-535; the Avi-tag stands between the C-terminus of the fragment and the 6xHis tag; The SPR experiments with the antibodies used the form without the Avi-tag, Plexin-B1 (20–535)-6xHis; The cell assays used full-length human Plexin-B1-FLAG (GenScript, pcDNA3.1); also called human recombinant Plexin-B1 …
